In patent publication US10864252B2, “Anti-SSX-2 T cell receptors and related materials and methods of use” (The United States of America, as represented by the …, priority 2010, dated 2020):

Columns and labels:
[1] = target: T1, SSX-2: 41-49 (KASEKIFYV) peptide (Homo sapiens, UniProt Q16385); test: IFN-γ release, co-culture with T2 cells pulsed with SSX-2: 41-49 peptide; format: cell-based
T1 construct: host or cells: T2 cells (peptide-pulsed)
From the text: SSX-2 TCR-transduced PBLs were co-cultured with T2 cells from two human donors, where the T2 cells were pulsed with varying concentrations of the SSX-2: 41-49 (KASEKIFYV) peptide. FIGS. 1A and 1B show the resulting interferon-γ levels (pg/ml) measured. […] The differences between FIGS. 1A and 1B may be due to donor variability.
PBLs that were untransduced (UT) or transduced with a vector comprising SEQ ID NO: 27 (SSX-2 TCR), SEQ ID NO: 29 (codon-optimized SSX-2 TCR), or SEQ ID NO: 30 (codon-optimized SSX-2 TCR including mouse constant region) were co-cultured with T2 cells that were pulsed with an SSX-2 were pulsed with varying concentrations of the SSX-2: 41-49 (KASEKIFYV) (SEQ ID NO: 1) peptide.

H82 = test: IFN-γ release, co-culture with H82; format: cell-based; conditions: co-cultured with H82
From the text: (§1) SSX-2 TCR-transduced PBLs were co-cultured with various tumor cell lines. […] FIGS. 4A and 4B, FIG. 11, and Tables 3 and 4 show additional results of PBLs from human donors that were transduced with the SSX-2 TCR of Example 2 when these PBLs were co-cultured with various tumor cells.

[2] = test system: melanoma (624, and 1300) and glioblastoma cell lines (U251); test: IFN-γ release, co-culture with various tumor cell lines (FIG. 3); format: cell-based
From the text: SSX-2 TCR-transduced PBLs were co-cultured with various tumor cell lines.

938 mel = test: IFN-γ release, co-culture with 938; format: cell-based; conditions: for IFN-γ: co-cultured with 938; for interferon-γ levels: co-cultured with 938 mel
From the text: (§2) SSX-2 TCR-transduced PBLs were co-cultured with various tumor cell lines. […] FIGS. 4A and 4B, FIG. 11, and Tables 3 and 4 show additional results of PBLs from human donors that were transduced with the SSX-2 TCR of Example 2 when these PBLs were co-cultured with various tumor cells. PBLs that were untransduced (UT) or transduced with a vector comprising SEQ ID NO: 27 (SSX-2 TCR), SEQ ID NO: 29 (codon-optimized SSX-2 TCR), or SEQ ID NO: 30 (codon-optimized SSX-2 TCR including mouse constant region) were co-cultured with various tumor cell lines. Tables 5 and 6 show the resulting interferon-γ levels (pg/ml) measured with respect to PBL from two different donors.

SKMEL 23 = test: IFN-γ release, co-culture with SKMEL 23; format: cell-based; conditions: co-cultured with SKMEL 23
From the text: as §1

SSX-1 to SSX-10 peptides = test: Co-culture with T2 cells pulsed with SSX family peptides; format: cell-based; conditions: peptide-pulsed T2 cells; FIG. 5
Experimental: The peptides used for pulsing were: SSX-1 (KYSEKISYV, SEQ ID NO: 32) (-♦-); SSX-2 (KASEKIFYV, SEQ ID NO: 2) (▪); SSX-3 (KVSEKIVYV, SEQ ID NO: 8) (▪); SSX-4 (KSSEKIVYV, SEQ ID NO: 9) (X); SSX-5 (KASEKIIYV, SEQ ID NO: 10) ( ? ); SSX-6 (KFSEKISCV, SEQ ID NO: 33) (•); SSX-7 (KSLEKISYV, SEQ ID NO: 34) (|); SSX-8 KYSEKISYV, SEQ ID NO: 32) (-); SSX-9 (KSSEKIIYV, SEQ ID NO: 11) (—); and SSX-10 (KASEKILYV, SEQ ID NO: 12) (--♦--).
Co-culture assays were performed with PBLs transduced with the SSX-2 TCR of Example 2 and peptide-pulsed T2 cells.

[3] = IFN-γ release, transduced PBL without target cells (medium / T cell alone); format: cell-based, human; conditions: for IFN-γ: MEDIUM, no target cells; for interferon-γ levels: T cell alone
From the text: as §2

MCF7 = test: IFN-γ release, co-culture with MCF7; format: cell-based; conditions: co-cultured with MCF7
From the text: as §1

SKOV3 Ovarian = test: IFN-γ release, co-culture with SKOV3 ovarian; format: cell-based; conditions: co-cultured with SKOV3 (Ovarian)
From the text: as §2

293-A2 SSX2 = test: IFN-γ release, co-culture with 293-A2 SSX2; format: cell-based; conditions: co-cultured with 293-A2 SSX2
From the text: as §2

HEPG2 = test: IFN-γ release, co-culture with HEPG2; format: cell-based; conditions: co-cultured with HEPG2
From the text: as §1

SSX-2 = test: Tetramer binding of transduced PBL; conditions: human donor-derived PBL; CD4 and CD8 cells
Lau 149 mel = test: IFN-γ release, co-culture with Lau 149 mel; format: cell-based; conditions: co-cultured with Lau 149 mel
From the text: (§3) PBLs that were untransduced (UT) or transduced with a vector comprising SEQ ID NO: 27 (SSX-2 TCR), SEQ ID NO: 29 (codon-optimized SSX-2 TCR), or SEQ ID NO: 30 (codon-optimized SSX-2 TCR including mouse constant region) were co-cultured with various tumor cell lines. Tables 5 and 6 show the resulting interferon-γ levels (pg/ml) measured with respect to PBL from two different donors.

OVCAR3 = test: IFN-γ release, co-culture with OVCAR3; format: cell-based; conditions: co-cultured with OVCAR3
From the text: as §1

U251 Glioma = test: IFN-γ release, co-culture with U251 glioma; format: cell-based; conditions: co-cultured with U251 (Glioma)
From the text: as §2

COS-A2 SSX2 = test: IFN-γ release, co-culture with COS-A2 SSX2; format: cell-based; conditions: co-cultured with COS-A2 SSX2
From the text: as §2

K562 = test: IFN-γ release, co-culture with K562; format: cell-based; conditions: co-cultured with K562
From the text: as §3

624 mel = test: IFN-γ release, co-culture with 624 melanoma; format: cell-based; conditions: co-cultured with 624 (Melanoma)
From the text: as §2

recognition of SSX-2: 41-49 peptide (IFN-γ) ([1]; FIG. 10): recognize SSX-2: 41-49 peptide
lowest SSX-2: 41-49 peptide concentration recognized (IFN-γ) ([1]; T2 cells from two human donors pulsed with varying peptide concentrations, FIGS. 1A, 1B): ≤ 0.01 ng/mL
tetramer binding (SSX-2): tetramer binding
B1: SSX2-TCR-WT: HLA-A2 restricted anti-SSX-2 TCR alpha and beta chains encoded by SEQ ID NO: 27, tested as transduced human PBLs (protein)
chain: MSLSSLLKVVTASLWLGPGIAQKITQTQPGMFVQEKEAVTLDCTYDTSDPSYGLFWYKQPSSGEMIFLIYQGSYDQQNATEGRYSLNFQKARKSANLVISASQLGDSAMYFCAMTSGFGNEKLTFGTGTRLTIIPNIQNPDPAVYQLRDSKSSDKSVCLFTDFDSQTNVSQSKDSDVYITDKTVLDMRSMDFKSNSAVAWSNKSDFACANAFNNSIIPEDTFFPSPESSCDVKLVEKSFETDTNLNFQNLSVIGFRILLLKVAGFNLLMTLRLWSSRAKRSGSGATNFSLLKQAGDVEENPGPMGPGLLHWMALCLLGTGHGDAMVIQNPRYQVTQFGKPVTLSCSQTLNHNVMYWYQQKSSQAPKLLFHYYDKDFNNEADTPDNFQSRRPNTSFCFLDIRSPGLGDAAMYLCATSRGQGGQPQHFGDGTRLSILEDLNKVFPPEVAVFEPSEAEISHTQKATLVCLATGFFPDHVELSWWVNGKEVHSGVSTDPQPLKEQPALNDSRYCLSSRLRVSATFWQNPRNHFRCQVQFYGLSENDEWTQDRAKPVTQIVSAEAWGRADCGFTSVSYQQGVLSATILYEILLGKATLYAVLVSALVLMAMVKRKDF
IFN-γ (H82; Table 3): 141 pg/mL
IFN-γ (H82; Table 4): 100 pg/mL
recognition of tumor cell lines (IFN-γ) [2]: recognized naturally processed and presented SSX-2 protein in both melanoma (624, and 1300) and glioblastoma cell lines (U251)
IFN-γ (938 mel; Table 3): 0 pg/mL
IFN-γ (938 mel; Table 4): 0 pg/mL
interferon-γ levels (938 mel; Table 5 donor): 1239 pg/mL
interferon-γ levels (938 mel; Table 6 donor): 1451 pg/mL
IFN-γ (SKMEL 23; Table 3): 0 pg/mL
IFN-γ (SKMEL 23; Table 4): 0 pg/mL
reactivity with SSX family peptides (SSX-1 to SSX-10 peptides): most reactive with the peptide of SSX-2 and also recognizes the peptides of SSX-3, -4, -5, -9, and -10 over the other SSX peptides
IFN-γ ([3]; Table 3): 0 pg/mL
IFN-γ ([3]; Table 4): 0 pg/mL
interferon-γ levels ([3]; Table 5 donor): 165 pg/mL
interferon-γ levels ([3]; Table 6 donor): 322 pg/mL
IFN-γ (MCF7; Table 3): 0 pg/mL
IFN-γ (MCF7; Table 4): 3 pg/mL
IFN-γ (SKOV3 Ovarian; Table 3): 663 pg/mL
IFN-γ (SKOV3 Ovarian; Table 4): 610 pg/mL
IFN-γ (293-A2 SSX2; Table 3): 33913 pg/mL
IFN-γ (293-A2 SSX2; Table 4): 20595 pg/mL
IFN-γ (HEPG2; Table 3): 25 pg/mL
IFN-γ (HEPG2; Table 4): 61 pg/mL
interferon-γ levels (Lau 149 mel; Table 5 donor): 285 pg/mL
interferon-γ levels (Lau 149 mel; Table 6 donor): 125 pg/mL
IFN-γ (OVCAR3; Table 3): 0 pg/mL
IFN-γ (OVCAR3; Table 4): 21 pg/mL
IFN-γ (U251 Glioma; Table 3): 9770 pg/mL
IFN-γ (U251 Glioma; Table 4): 12025 pg/mL
IFN-γ (COS-A2 SSX2; Table 3): 36070 pg/mL
IFN-γ (COS-A2 SSX2; Table 4): 56820 pg/mL
interferon-γ levels (K562; Table 5 donor): 1969 pg/mL
interferon-γ levels (K562; Table 6 donor): 1807 pg/mL
IFN-γ (624 mel; Table 3): 26515 pg/mL
IFN-γ (624 mel; Table 4): 21730 pg/mL
